# From patent publication US20240360238A1 (MAGENTA THERAPEUTICS, published 2024)
# Residue numbers refer to the chain shown, from its start.
# B1: CD117-ADC (anti-CD117 antibody CK6 conjugated to amatoxin) (antibody, V domains shown)
# VH: QVQLVQSGAAVKKPGESLKISCKGSGYRFTSYWIGWVRQMPGKGLEWMGIIYPGDSDTRYSPSFQGQVTISAGKSISTAYLQWSSLKASDTAMYYCARHGRGYNGYEGAFDIWGQGTMVTVSS
# VL: AIQLTQSPSSLSASVGDRVTITCRASQGISSALAWYQQKPGKAPKLLIYDASSLESGVPSRFSGSGSGTDFTLTISSLQPEDFATYYCQQFNSYPLTFGGGTKVEIK
# modifications: antibody conjugated to an amatoxin; site and linker not stated for this assay
# B2: HC-79/LC-79 (Ab79) (antibody, IgG1, V domains shown)
# VH: B1 VH with S31T
# VL: B1 VL with A1D, I29V, S30G, S53I
# notes: Purified human antibody tested as an IgG1; hIgG1/hKappa; also called Antibody 79
# B3: HC-249/LC-249 (Ab249) (antibody, V domains shown)
# VH: B1 VH with Q1E, A10E, S31T, Y32S, G73D, R101L, M118L
# VL: B1 VL with A1D, L4M, S30G, S53N, S56T, F91L, S93G, G100Q, K103R, V104L
# notes: IgG on anti-human Fc sensors; hIgG1/hKappa
# B4: HC-249/LC-249 ADC (Ab249 conjugated to an amatoxin) (antibody, V domains shown)
# VH: B1 VH with Q1E, A10E, S31T, Y32S, G73D, R101L, M118L
# VL: B1 VL with A1D, L4M, S30G, S53N, S56T, F91L, S93G, G100Q, K103R, V104L
# modifications: antibody conjugated to an amatoxin; site not stated
# B5: HC-1/LC-1 (Ab1) (antibody, IgG1, V domains shown)
# VH: B1 VH with S31T
# VL: B1 VL with I29V
# notes: Purified IgG (IgG1); also called 001; CK6 derivative Ab1
# B6: HC-81/LC-81 (Ab81) (antibody, IgG1, V domains shown)
# VH: B1 VH with S31T
# VL: B1 VL with A1D, I29V, S30I, S53T
# notes: Purified human antibody tested as an IgG1; hIgG1/hKappa; also called Antibody 81
# B7: HC-77/LC-77 (Ab77) (antibody, IgG1, V domains shown)
# VH: B1 VH with S31T
# VL: B1 VL with A1D, I29V, S30I, S53I
# notes: Purified human antibody tested as an IgG1; hIgG1/hKappa; also called Antibody 77
# B8: HC-85/LC-85 ADC (Ab85 conjugated to an amatoxin) (antibody, V domains shown)
# VH: EVQLVQSGAEVKKPGESLKISCKGSGYSFTNYWIGWVRQMPGKGLEWMAIINPRDSDTRYRPSFQGQVTISADKSISTAYLQWSSLKASDTAMYYCARHGRGYEGYEGAFDIWGQGTLVTVSS
# VL: DIQMTQSPSSLSASVGDRVTITCRSSQGIRSDLGWYQQKPGKAPKLLIYDASNLETGVPSRFSGSGSGTDFTLTISSLQPEDFATYYCQQANGFPLTFGGGTKVEIK
# modifications: antibody conjugated to an amatoxin; site not stated
# B9: HC-85/LC-85 (Ab85) (antibody, V domains shown)
# VH: B8 VH
# VL: B8 VL
# notes: Purified IgG, hIgG1/hKappa; also called Antibody 85
# Assays:
# [1] = target: T1, CD117 on Kasumi-1 cells and primary human CD34+ bone marrow cells (human, UniProt P10721 26-976); assay: cell-based or functional assay
# T1 sequence (P10721 26-976): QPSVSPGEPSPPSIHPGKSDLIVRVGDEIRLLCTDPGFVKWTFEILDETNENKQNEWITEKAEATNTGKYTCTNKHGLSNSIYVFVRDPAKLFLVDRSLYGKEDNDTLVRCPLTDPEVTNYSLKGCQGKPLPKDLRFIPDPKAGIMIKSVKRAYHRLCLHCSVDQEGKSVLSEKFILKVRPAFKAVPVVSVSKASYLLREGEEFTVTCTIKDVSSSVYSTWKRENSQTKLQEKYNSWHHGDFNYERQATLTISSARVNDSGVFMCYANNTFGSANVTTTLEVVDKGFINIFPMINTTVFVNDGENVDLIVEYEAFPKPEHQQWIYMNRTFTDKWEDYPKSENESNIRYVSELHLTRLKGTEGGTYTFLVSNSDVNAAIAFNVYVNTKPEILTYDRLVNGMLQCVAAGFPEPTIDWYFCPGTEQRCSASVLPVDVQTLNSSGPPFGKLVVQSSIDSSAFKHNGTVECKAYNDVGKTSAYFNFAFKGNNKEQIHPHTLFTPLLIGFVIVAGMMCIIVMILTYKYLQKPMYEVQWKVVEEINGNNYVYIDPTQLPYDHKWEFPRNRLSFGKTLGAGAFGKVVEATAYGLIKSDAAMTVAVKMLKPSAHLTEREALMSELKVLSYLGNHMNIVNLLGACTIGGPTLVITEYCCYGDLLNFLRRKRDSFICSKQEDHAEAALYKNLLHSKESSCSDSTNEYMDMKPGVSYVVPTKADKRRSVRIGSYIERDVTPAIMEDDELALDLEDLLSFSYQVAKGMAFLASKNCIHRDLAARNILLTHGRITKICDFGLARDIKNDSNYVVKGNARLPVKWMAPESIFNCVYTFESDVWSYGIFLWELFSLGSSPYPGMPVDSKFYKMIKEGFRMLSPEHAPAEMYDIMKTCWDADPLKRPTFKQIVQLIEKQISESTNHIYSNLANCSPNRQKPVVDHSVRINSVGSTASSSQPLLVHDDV
# [2] = target: T1, CD117 on Kasumi-1 cells and primary …; assay: cell-based or functional assay; remark: listed apart in the source
# [3] = target: T1, CD117 on Kasumi-1 cells and primary …; assay: cell-based or functional assay; remark: listed apart in the source
# [4] = target: T2, purified human CD117 ectodomain (R&D Systems #332-SR) (human, UniProt P10721 26-524); assay: BLI; kdis compared to HC-1/LC-1 (Ab1)
# T2 construct: extracellular domain; Bought protein; also called c-kit; purified recombinant human CD117 ectodomain
# T2 sequence (P10721 26-524): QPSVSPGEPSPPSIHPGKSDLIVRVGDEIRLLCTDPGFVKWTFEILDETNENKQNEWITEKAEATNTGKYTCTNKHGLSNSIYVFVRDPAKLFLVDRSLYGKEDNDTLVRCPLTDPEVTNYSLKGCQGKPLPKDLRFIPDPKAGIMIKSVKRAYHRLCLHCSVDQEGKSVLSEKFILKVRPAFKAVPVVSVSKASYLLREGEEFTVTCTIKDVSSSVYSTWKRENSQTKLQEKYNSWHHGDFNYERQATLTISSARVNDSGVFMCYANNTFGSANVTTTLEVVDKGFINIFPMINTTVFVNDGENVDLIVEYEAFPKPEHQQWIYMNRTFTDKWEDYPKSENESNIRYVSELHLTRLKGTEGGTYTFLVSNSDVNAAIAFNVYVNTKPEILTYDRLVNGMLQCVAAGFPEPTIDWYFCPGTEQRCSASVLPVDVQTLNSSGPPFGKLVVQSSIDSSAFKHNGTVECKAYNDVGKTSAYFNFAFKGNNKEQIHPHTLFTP
# [5] = target: T2, purified human CD117 ectodomain (R&D …); assay: BLI, IgG on anti-human Fc sensor, 33 and 11 nM ectodomain;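 further: Kd, kon and koff are apparent values, with Kd reported as the apparent monovalent affinity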
# [6] = target: T2, purified human CD117 ectodomain (R&D …); assay: BLI (Octet Red96), IgG1 on anti-human Fc sensor, 33.3 and 11 nM ectodomain, 1:1 fit
# [7] = target: T2, purified human CD117 ectodomain (R&D …); assay: BLI, purified IgG on sensor, soluble ectodomain; apparent monovalent
# [8] = target: T2, purified human CD117 ectodomain (R&D …); assay: BLI (Octet Red96), IgG on anti-human Fc sensor, 33.3 and 11 nM ectodomain
Binder,"IC50 (M), Kasumi-1 cell killing (Celltiter Glo, 3 days) [2]","% efficacy, killing of primary human CD34+CD90+ cells [3]","IC50, killing of primary human CD34+CD90+ cells (5 days, flow cytometry counts) [3]",Fold improvement (off-rate) [4],Kd [5],koff [5],kon [5],Kd [6],koff [6],kon [6],further results
B1,1.48e-11 M,70.8%,0.00977 nM,,,,,,,,"IC50, in vitro killing of Kasumi-1 cells (Celltiter Glo) [1]: 1600 nM; IC50, in vitro killing of primary human CD34+ bone marrow cells [1]: 21000 nM"
B2,,,,4.7 fold,1.52 nM,0.000478 s⁻¹,316000 M⁻¹ s⁻¹,1.52 nM,0.000478 s⁻¹,316000 M⁻¹ s⁻¹,
B3,,,,12 fold,0.551 nM,0.000189 s⁻¹,344000 M⁻¹ s⁻¹,,,,
B4,2.5e-11 M,52%,0.00667 nM,,,,,,,,
B5,,,,,4.09 nM,0.00227 s⁻¹,556000 M⁻¹ s⁻¹,3.1 nM,0.0013 s⁻¹,420000 M⁻¹ s⁻¹,Kd [7]: 2.81 nM; koff [7]: 0.000848 s⁻¹; kon [7]: 302000 M⁻¹ s⁻¹; Kd [8]: 4.09 nM; koff [8]: 0.00227 s⁻¹; kon [8]: 556000 M⁻¹ s⁻¹
B6,,,,9 fold,0.877 nM,0.000252 s⁻¹,288000 M⁻¹ s⁻¹,0.877 nM,0.000252 s⁻¹,288000 M⁻¹ s⁻¹,
B7,,,,10.5 fold,0.684 nM,0.000215 s⁻¹,315000 M⁻¹ s⁻¹,0.684 nM,0.000215 s⁻¹,315000 M⁻¹ s⁻¹,
B8,1.76e-11 M,71.2%,0.00574 nM,,,,,,,,
B9,,,,5.2 fold,0.835 nM,0.000434 s⁻¹,520000 M⁻¹ s⁻¹,,,,Kd [8]: 0.835 nM; koff [8]: 0.000434 s⁻¹; kon [8]: 520000 M⁻¹ s⁻¹
